The target of one assay is T1, Human CD3ε (human, UniProt P07766 23-126).
T1 construct: CD3 on T cells isolated from human whole blood
The assay is described as follows: flow cytometry, human T cells. In a few lines:
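Antibody titrations (11 points, 3-fold from 3000 nM) incubated 2 h at 4° C with 2×10⁵ target cells per well—T cells for CD3, antigen-positive tumor lines such as MM.1S or RPMI 8226 for CD38.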

In a further assay the target is T2, Monkey CD3 (monkey).
T2 construct: whole, on cells; also called CD3 of monkey CD3 positive T cells
The assay is described as follows: flow cytometry, monkey T cells.

A further assay deals with T3, human CEA (human, UniProt P06731 35-685).
T3 sequence: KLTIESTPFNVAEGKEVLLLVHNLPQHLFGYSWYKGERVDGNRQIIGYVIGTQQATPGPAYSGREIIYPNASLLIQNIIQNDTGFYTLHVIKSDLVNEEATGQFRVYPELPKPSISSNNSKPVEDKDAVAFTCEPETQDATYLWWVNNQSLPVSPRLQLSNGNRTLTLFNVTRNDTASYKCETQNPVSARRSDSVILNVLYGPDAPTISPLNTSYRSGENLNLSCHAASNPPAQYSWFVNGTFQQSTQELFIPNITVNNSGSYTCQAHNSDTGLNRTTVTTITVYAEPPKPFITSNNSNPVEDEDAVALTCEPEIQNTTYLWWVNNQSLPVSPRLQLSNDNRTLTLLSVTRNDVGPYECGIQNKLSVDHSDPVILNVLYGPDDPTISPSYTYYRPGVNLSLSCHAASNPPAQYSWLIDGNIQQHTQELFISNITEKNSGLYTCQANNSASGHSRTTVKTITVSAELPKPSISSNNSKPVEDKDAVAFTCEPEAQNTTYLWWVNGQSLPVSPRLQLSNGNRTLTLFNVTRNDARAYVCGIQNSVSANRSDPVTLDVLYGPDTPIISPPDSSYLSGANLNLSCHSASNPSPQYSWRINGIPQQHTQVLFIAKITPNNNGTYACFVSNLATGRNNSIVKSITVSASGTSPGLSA
The assay is described as follows: flow cytometry, human tumor cells (CEA+). From the text:
1) Cell preparation: T cells isolated from CD3-positive human whole blood were used for a CD3 end affinity detection of multifunctional antibody molecule; positive tumor cells of corresponding antigen were used for detecting affinity of tumor antigen; for example, CD38-positive MM. 1S cells (purchased from the Cell Resource Center of Shanghai Institutes for Biological Sciences, Chinese Academy of Sciences) or RPMI 8226 cells (purchased from the Cell Resource Center of Shanghai Institutes for Biological Sciences, Chinese Academy of Sciences) were used for CD38 antigen detection, and PD-L1 positive H358 cells (purchased from the Cell Resource Center of Shanghai Institutes for Biological Sciences, Chinese Academy of Sciences) were used for PD-L1 antigen detection, and so on. The cells were resuspended with 1% FBS-PBS, adjusted to a density of 4×10⁶/ml, and 50 μl of cells were taken from each well, and then plated at 2×10⁵ per well. Cell plating was operated on ice
2) Addition of the antibody: according to the experimental design, the antibody was diluted gradually, and dilution of antibody was operated on ice. For example, the initial concentration of antibody for dilution was 3000 nM, and the antibody was diluted by 3 times with 11 concentration gradients. The diluted antibody was added to a cell well at 50 μl per well, mixed well, and shaked and incubated at 4° C. 1100 rpm/min for 2 h; after washing, the cells were resuspend in 1% FBS-PBS, and a diluted secondary antibody PE anti-human IgG FC (Biolegend, 409304) was added with a final concentration of 8 ug/ml and a volume of 50 μl/well. At the same time, a well only added with cells and secondary antibody was set as a control, the components were mixed well, and incubated under shaking at 1100 rpm/min at 4° C. for 1 h;
5) Data analysis: the data was analyzed by a flow analysis software FlowJo 7.6 thereby obtaining an average fluorescence intensity of the specific antibody concentration, plotted by a Graphpad Prism 5 with the antibody concentration (nM) as an abscissa and the average fluorescence intensity as an ordinate; the EC50 value was calculated by the method of One site—Specific binding, and the EC50 value indicated the cell affinity of the antibody to the corresponding target antigen.
For orientation: Flow cytometry measures light scatter and fluorescence of single cells or particles in a stream.

B1: CEA-M3-WT (bispecific antibody)
fusion heavy: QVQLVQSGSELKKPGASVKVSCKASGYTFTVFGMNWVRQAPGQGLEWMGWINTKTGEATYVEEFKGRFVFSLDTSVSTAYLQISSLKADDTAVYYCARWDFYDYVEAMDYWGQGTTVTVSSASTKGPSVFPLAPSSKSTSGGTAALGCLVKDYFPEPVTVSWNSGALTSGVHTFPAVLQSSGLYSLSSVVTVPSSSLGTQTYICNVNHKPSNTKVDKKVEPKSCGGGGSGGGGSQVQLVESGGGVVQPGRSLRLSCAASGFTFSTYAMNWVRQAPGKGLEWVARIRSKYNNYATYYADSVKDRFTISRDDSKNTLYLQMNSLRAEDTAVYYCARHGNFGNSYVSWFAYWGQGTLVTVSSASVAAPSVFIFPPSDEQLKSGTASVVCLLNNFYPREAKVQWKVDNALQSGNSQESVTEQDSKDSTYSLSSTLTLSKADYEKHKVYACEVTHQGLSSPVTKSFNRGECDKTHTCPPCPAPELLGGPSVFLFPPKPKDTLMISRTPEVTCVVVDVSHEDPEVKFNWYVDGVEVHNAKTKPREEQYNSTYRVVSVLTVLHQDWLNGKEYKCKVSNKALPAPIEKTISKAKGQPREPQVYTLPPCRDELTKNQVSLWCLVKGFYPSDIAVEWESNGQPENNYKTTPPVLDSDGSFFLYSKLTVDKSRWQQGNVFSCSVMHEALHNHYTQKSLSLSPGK
cross light: QTVVTQEPSLTVSPGGTVTLTCRSSTGAVTTSNYANWVQQKPGQAPRGLIGGTNKRAPGVPARFSGSLLGGKAALTLSGVQPEDEAEYYCALWYSNLWVFGGGTKVEIKSSASTKGPSVFPLAPSSKSTSGGTAALGCLVKDYFPEPVTVSWNSGALTSGVHTFPAVLQSSGLYSLSSVVTVPSSSLGTQTYICNVNHKPSNTKVDKKVEPKSC
heavy: QVQLVQSGSELKKPGASVKVSCKASGYTFTVFGMNWVRQAPGQGLEWMGWINTKTGEATYVEEFKGRFVFSLDTSVSTAYLQISSLKADDTAVYYCARWDFYDYVEAMDYWGQGTTVTVSSASTKGPSVFPLAPSSKSTSGGTAALGCLVKDYFPEPVTVSWNSGALTSGVHTFPAVLQSSGLYSLSSVVTVPSSSLGTQTYICNVNHKPSNTKVDKKVEPKSCDKTHTCPPCPAPELLGGPSVFLFPPKPKDTLMISRTPEVTCVVVDVSHEDPEVKFNWYVDGVEVHNAKTKPREEQYNSTYRVVSVLTVLHQDWLNGKEYKCKVSNKALPAPIEKTISKAKGQPREPQVCTLPPSRDELTKNQVSLSCAVKGFYPSDIAVEWESNGQPENNYKTTPPVLDSDGSFFLVSKLTVDKSRWQQGNVFSCSVMHEALHNRFTQKSLSLSPGK
light: DIQMTQSPSSLSASVGDRVTITCKASQNVGTNVAWYQQKPGKAPKLLIYSASYRYSGVPSRFSGSGSGTDFTFTISSLQPEDIATYYCHQYYTYPLFTFGQGTKVEIKRTVAAPSVFIFPPSDEQLKSGTASVVCLLNNFYPREAKVQWKVDNALQSGNSQESVTEQDSKDSTYSLSSTLTLSKADYEKHKVYACEVTHQGLSSPVTKSFNRGEC
notes: structure 3; CEA x CD3; CH2 WT; copies: 1 + 1 + 1 + 2
With B1, the results for the concentration for a half-maximal effect (EC50) in the assay with Human CD3ε, with Monkey CD3 and in the assay with human CEA were 624 nM, 757 nM and 35.8 nM, respectively.

B2: CEA-M3-FES (bispecific antibody, human IgG1, kappa)
fusion heavy: QVQLVQSGSELKKPGASVKVSCKASGYTFTVFGMNWVRQAPGQGLEWMGWINTKTGEATYVEEFKGRFVFSLDTSVSTAYLQISSLKADDTAVYYCARWDFYDYVEAMDYWGQGTTVTVSSASTKGPSVFPLAPSSKSTSGGTAALGCLVKDYFPEPVTVSWNSGALTSGVHTFPAVLQSSGLYSLSSVVTVPSSSLGTQTYICNVNHKPSNTKVDKKVEPKSCGGGGSGGGGSQVQLVESGGGVVQPGRSLRLSCAASGFTFSTYAMNWVRQAPGKGLEWVARIRSKYNNYATYYADSVKDRFTISRDDSKNTLYLQMNSLRAEDTAVYYCARHGNFGNSYVSWFAYWGQGTLVTVSSASVAAPSVFIFPPSDEQLKSGTASVVCLLNNFYPREAKVQWKVDNALQSGNSQESVTEQDSKDSTYSLSSTLTLSKADYEKHKVYACEVTHQGLSSPVTKSFNRGECDKTHTCPPCPAPEFEGGPSVFLFPPKPKDTLMISRTPEVTCVVVDVSHEDPEVKFNWYVDGVEVHNAKTKPREEQYNSTYRVVSVLTVLHQDWLNGKEYKCKVSNKALPASIEKTISKAKGQPREPQVYTLPPCRDELTKNQVSLWCLVKGFYPSDIAVEWESNGQPENNYKTTPPVLDSDGSFFLYSKLTVDKSRWQQGNVFSCSVMHEALHNHYTQKSLSLSPGK
cross light: QTVVTQEPSLTVSPGGTVTLTCRSSTGAVTTSNYANWVQQKPGQAPRGLIGGTNKRAPGVPARFSGSLLGGKAALTLSGVQPEDEAEYYCALWYSNLWVFGGGTKVEIKSSASTKGPSVFPLAPSSKSTSGGTAALGCLVKDYFPEPVTVSWNSGALTSGVHTFPAVLQSSGLYSLSSVVTVPSSSLGTQTYICNVNHKPSNTKVDKKVEPKSC
heavy: QVQLVQSGSELKKPGASVKVSCKASGYTFTVFGMNWVRQAPGQGLEWMGWINTKTGEATYVEEFKGRFVFSLDTSVSTAYLQISSLKADDTAVYYCARWDFYDYVEAMDYWGQGTTVTVSSASTKGPSVFPLAPSSKSTSGGTAALGCLVKDYFPEPVTVSWNSGALTSGVHTFPAVLQSSGLYSLSSVVTVPSSSLGTQTYICNVNHKPSNTKVDKKVEPKSCDKTHTCPPCPAPEFEGGPSVFLFPPKPKDTLMISRTPEVTCVVVDVSHEDPEVKFNWYVDGVEVHNAKTKPREEQYNSTYRVVSVLTVLHQDWLNGKEYKCKVSNKALPASIEKTISKAKGQPREPQVCTLPPSRDELTKNQVSLSCAVKGFYPSDIAVEWESNGQPENNYKTTPPVLDSDGSFFLVSKLTVDKSRWQQGNVFSCSVMHEALHNRFTQKSLSLSPGK
light: DIQMTQSPSSLSASVGDRVTITCKASQNVGTNVAWYQQKPGKAPKLLIYSASYRYSGVPSRFSGSGSGTDFTFTISSLQPEDIATYYCHQYYTYPLFTFGQGTKVEIKRTVAAPSVFIFPPSDEQLKSGTASVVCLLNNFYPREAKVQWKVDNALQSGNSQESVTEQDSKDSTYSLSSTLTLSKADYEKHKVYACEVTHQGLSSPVTKSFNRGEC
notes: structure 3; CEA x CD3; CH2 FES; copies: 1 + 1 + 1 + 2
With B2, the half-maximal effective concentration (EC50) (as a rule, the midpoint of the concentration-response curve) with Human CD3ε turned out to be 639 nM; in the assay with Monkey CD3, 732 nM; with human CEA, 42.9 nM.

B3: CEA-M3-AAG (bispecific antibody)
fusion heavy: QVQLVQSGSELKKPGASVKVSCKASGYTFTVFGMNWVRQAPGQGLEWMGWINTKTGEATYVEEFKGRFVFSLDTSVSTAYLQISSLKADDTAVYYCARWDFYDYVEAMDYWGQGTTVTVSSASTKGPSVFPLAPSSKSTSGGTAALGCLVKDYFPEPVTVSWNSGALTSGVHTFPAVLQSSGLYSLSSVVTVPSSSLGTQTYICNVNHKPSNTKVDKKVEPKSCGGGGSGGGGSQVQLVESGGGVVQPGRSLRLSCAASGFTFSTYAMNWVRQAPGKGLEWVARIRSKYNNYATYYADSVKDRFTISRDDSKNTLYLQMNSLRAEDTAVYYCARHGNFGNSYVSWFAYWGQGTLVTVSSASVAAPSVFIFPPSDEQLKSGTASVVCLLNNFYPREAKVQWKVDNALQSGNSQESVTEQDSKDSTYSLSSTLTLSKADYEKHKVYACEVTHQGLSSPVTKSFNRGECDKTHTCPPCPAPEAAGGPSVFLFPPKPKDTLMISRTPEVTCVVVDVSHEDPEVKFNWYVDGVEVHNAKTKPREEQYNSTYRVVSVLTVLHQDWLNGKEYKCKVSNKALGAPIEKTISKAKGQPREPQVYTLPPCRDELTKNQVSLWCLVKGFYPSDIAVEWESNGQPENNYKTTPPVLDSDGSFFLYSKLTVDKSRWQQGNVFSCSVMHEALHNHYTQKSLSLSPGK
cross light: QTVVTQEPSLTVSPGGTVTLTCRSSTGAVTTSNYANWVQQKPGQAPRGLIGGTNKRAPGVPARFSGSLLGGKAALTLSGVQPEDEAEYYCALWYSNLWVFGGGTKVEIKSSASTKGPSVFPLAPSSKSTSGGTAALGCLVKDYFPEPVTVSWNSGALTSGVHTFPAVLQSSGLYSLSSVVTVPSSSLGTQTYICNVNHKPSNTKVDKKVEPKSC
heavy: QVQLVQSGSELKKPGASVKVSCKASGYTFTVFGMNWVRQAPGQGLEWMGWINTKTGEATYVEEFKGRFVFSLDTSVSTAYLQISSLKADDTAVYYCARWDFYDYVEAMDYWGQGTTVTVSSASTKGPSVFPLAPSSKSTSGGTAALGCLVKDYFPEPVTVSWNSGALTSGVHTFPAVLQSSGLYSLSSVVTVPSSSLGTQTYICNVNHKPSNTKVDKKVEPKSCDKTHTCPPCPAPEAAGGPSVFLFPPKPKDTLMISRTPEVTCVVVDVSHEDPEVKFNWYVDGVEVHNAKTKPREEQYNSTYRVVSVLTVLHQDWLNGKEYKCKVSNKALGAPIEKTISKAKGQPREPQVCTLPPSRDELTKNQVSLSCAVKGFYPSDIAVEWESNGQPENNYKTTPPVLDSDGSFFLVSKLTVDKSRWQQGNVFSCSVMHEALHNRFTQKSLSLSPGK
light: DIQMTQSPSSLSASVGDRVTITCKASQNVGTNVAWYQQKPGKAPKLLIYSASYRYSGVPSRFSGSGSGTDFTFTISSLQPEDIATYYCHQYYTYPLFTFGQGTKVEIKRTVAAPSVFIFPPSDEQLKSGTASVVCLLNNFYPREAKVQWKVDNALQSGNSQESVTEQDSKDSTYSLSSTLTLSKADYEKHKVYACEVTHQGLSSPVTKSFNRGEC
notes: structure 3; CEA x CD3; CH2 AAG; copies: 1 + 1 + 1 + 2
On to B3, for which the figures for the half-maximal effective concentration (EC50) with Human CD3ε, with Monkey CD3 and with human CEA were 646 nM, 662 nM and 30.1 nM, respectively.

The record behind these values is patent publication US20220098307A1 (WUHAN YZY BIOPHARMA, published 2022).
